These are literature values, as cited in PMC11155677.

The data set has as its target Lys115 (UniProt position 115, LSAYPKKLGYP).

The term pKa denotes the pH at which an ionisable group is half protonated. In the case of “Acetoacetate decarboxylase (AADase) (not stated (Clostridium acetobutylicum inferred))”, the pKa is on record as 6.
